According to US20030190311A1:

Assays:
[1] = target: human FcRn (human); assay: BIAcore SPR, equilibrium/Scatchard, soluble FcRn over immobilized IgG1, pH 6.0, 25 C
[2] = target: murine FcRn (murine); assay: as above
murine FcRn (murine), sequence (chain, as listed by the source limits assumed, chain 1 of 2): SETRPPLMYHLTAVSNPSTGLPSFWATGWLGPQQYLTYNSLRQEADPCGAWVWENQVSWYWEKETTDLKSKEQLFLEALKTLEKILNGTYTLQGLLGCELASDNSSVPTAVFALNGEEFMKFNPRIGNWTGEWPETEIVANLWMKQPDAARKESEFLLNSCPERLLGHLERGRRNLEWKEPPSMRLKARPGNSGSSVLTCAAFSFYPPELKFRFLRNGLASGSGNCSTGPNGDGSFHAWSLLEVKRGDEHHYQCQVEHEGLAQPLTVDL
murine FcRn (murine), sequence (P01887 21-119 limits assumed, chain 2 of 2): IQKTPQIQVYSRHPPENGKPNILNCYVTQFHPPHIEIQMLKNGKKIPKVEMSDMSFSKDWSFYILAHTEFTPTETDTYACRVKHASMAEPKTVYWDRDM

human FcRn (human), sequence (chain, as listed by the source limits assumed, chain 1 of 2): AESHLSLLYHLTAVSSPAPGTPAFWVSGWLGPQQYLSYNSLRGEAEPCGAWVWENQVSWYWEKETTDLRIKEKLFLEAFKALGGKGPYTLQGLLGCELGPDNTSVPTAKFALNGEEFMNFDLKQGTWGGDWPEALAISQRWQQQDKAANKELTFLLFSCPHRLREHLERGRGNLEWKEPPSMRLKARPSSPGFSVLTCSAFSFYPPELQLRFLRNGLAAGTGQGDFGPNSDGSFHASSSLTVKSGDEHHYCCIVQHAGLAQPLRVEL
human FcRn (human), sequence (P61769 21-119 limits assumed, chain 2 of 2): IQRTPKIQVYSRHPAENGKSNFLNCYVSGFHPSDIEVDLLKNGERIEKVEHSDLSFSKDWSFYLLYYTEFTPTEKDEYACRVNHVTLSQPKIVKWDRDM

## wild type human IgG1 MEDI-493 (SYNAGIS) (antibody)
[1]
  Kd: 2530 nM
[2]
  Kd: 269 nM
